Results reported in patent US20260151494A1 (ARO BIOTHERAPEUTICS, published 2026).

Tests used:
[1] = target: T1, human CD71 extracellular domain (human, UniProt P02786 89-760); test: primary ELISA; note: test concentration or dose not given here
T1 construct: also called hCD71; CD71-ECD

[2] = target: T2, human apical domain of CD71 (human, UniProt P02786 189-383, limits assumed); test: primary ELISA; note: test concentration or dose not given here
T2 construct: domain: apical domain

[3] = target: T1, human CD71 extracellular domain; test: primary ELISA; signal over HSA control; for RLU: test concentration or dose not given here
[4] = target: T2, human apical domain of CD71; test: primary ELISA; signal over HSA control; for RLU: test concentration or dose not given here

T2 sequence (P02786 189-383 limits assumed): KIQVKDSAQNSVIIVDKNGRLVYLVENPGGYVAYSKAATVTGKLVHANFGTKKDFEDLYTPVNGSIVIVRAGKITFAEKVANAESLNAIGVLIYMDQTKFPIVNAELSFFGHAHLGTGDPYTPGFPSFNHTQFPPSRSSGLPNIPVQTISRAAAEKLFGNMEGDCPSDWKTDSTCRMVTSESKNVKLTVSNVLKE
T1 sequence (P02786 89-760): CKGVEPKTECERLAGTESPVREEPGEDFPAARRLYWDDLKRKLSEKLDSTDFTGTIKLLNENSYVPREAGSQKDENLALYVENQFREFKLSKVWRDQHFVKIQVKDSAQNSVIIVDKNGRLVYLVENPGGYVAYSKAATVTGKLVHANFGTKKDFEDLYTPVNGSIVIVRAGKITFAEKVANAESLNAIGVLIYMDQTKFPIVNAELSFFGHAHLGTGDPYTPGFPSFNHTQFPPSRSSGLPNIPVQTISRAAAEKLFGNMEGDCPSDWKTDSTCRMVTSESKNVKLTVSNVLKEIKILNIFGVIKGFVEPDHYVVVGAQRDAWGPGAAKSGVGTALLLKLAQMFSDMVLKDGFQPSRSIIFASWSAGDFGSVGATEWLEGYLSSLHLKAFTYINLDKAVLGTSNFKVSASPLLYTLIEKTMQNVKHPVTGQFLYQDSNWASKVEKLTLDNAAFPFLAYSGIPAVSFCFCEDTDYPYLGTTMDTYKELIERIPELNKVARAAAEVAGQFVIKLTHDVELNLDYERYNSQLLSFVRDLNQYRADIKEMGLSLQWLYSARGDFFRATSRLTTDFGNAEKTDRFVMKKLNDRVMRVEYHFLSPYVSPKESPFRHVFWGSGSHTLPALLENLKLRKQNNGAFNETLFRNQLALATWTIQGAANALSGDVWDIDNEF

Row | Binder | RLU [1] [RLU] | RLU [2] [RLU] | hCD71:HSA [3] [ratio] | Apical domain:HSA [4] [ratio]
1 | CD71-binding FN3 domain SEQ ID NO 380 (designed binder) MLPAPKNLVVSRVTEDSARLSWTAPDAAFDSFFIGYLEPQPPGEAIGLFVPGSERSYDLTGLKPGTEYNVTIQGVKGGFPSMPLSAIFTT | 5.32e+06 | 6.5e+06 | 21 | 25
2 | CD71-binding FN3 domain SEQ ID NO 349 (designed binder) MLPAPKNLVVSRVTEDSARLSWTAPDAAFDSFFIGYLEPQPPGEAIELYVPGSERSYDLTGLKPGTEYNVTIQGVKGGFPSEPLIAHFTT | 6.37e+06 | 6.87e+06 | 22 | 23
3 | CD71-binding FN3 domain SEQ ID NO 356 (designed binder) MLPAPKNLVVSRITEDSARLSWTAPDAAFDSFFIGYLEPQPPGEAITLLVPASERSYDLTGLKPGTEYNVTIQGVKGGFPSHPLQAQFTT | 3.92e+06 | 6.37e+06 | 207 | 337
4 | CD71-binding FN3 domain SEQ ID NO 360 (designed binder) MLPAPKNLVVSRVTEDSARLSWTAPDAAFDSFFIGYLEPQPPGEAISLYVPGSERSYDLTGLKPGTEYNVTIQGVKGGFPSHPLLAVFTT | 5.78e+06 | 5.37e+06 | 155 | 144
5 | CD71-binding FN3 domain SEQ ID NO 350 (designed binder) MLPAPKNLVVSRVTEDSARLSWTAPDAAFDSFFIGYLEPQPPGEAISLFVPGSERSYDLTGLKPGTEYNVTIQGVKGGFPSMPLVAQFTT | 5.96e+06 | 6.7e+06 | 127 | 143
6 | CD71-binding FN3 domain SEQ ID NO 355 (designed binder) MLPAPKNLVVSRVTEDSARLSWTAPDAAFDSFFIGYLEPQPPGEAIHLYVPGSERSYDLTGLKPGTEYNVTIQGVKGGFPSHPLYADFTT | 3.58e+06 | 5.91e+06 | 257 | 424
7 | CD71-binding FN3 domain SEQ ID NO 357 (designed binder) MLPAPKNLVVSRVTEDSARLSWTAPDAAFDSFFIGYLEPQPPGEAIGLFVPGSERSYDLTGLKPGTEYNVTIQGVKGGFPSDPLVAYFTT | 5.62e+06 | 6.34e+06 | 16 | 18
8 | CD71-binding FN3 domain SEQ ID NO 353 (designed binder) MLPAPKNLVVSRVTEDSARLSWTAPDAAFDSFFIGYLEPQPPGEAIGLFVPGSERSYDLTGLKPGTEYNVTIQGVKGGFPSNPLEARFTT | 4.54e+06 | 6.87e+06 | 53 | 80
9 | CD71-binding FN3 domain SEQ ID NO 346 (designed binder) MLPAPKNLVVSRVTEDSARLSWTAPDAAFDSFFIGYLEPQPPGEAISLFVPGSERSYDLTGLKPGTEYNVTIQGVKGGFPSDPLNATFNT | 5e+06 | 6.82e+06 | 61 | 83
10 | CD71-binding FN3 domain SEQ ID NO 347 (designed binder) MLPAPKNLVVSRVTEDSARLSWTAPDAAFDSFFIGYLEPQPPGEAIGLFVPGSERSYDLTGLKPGTEYNVTIQGVKGGFPSEPLKAAFTT | 4.1e+06 | 5.95e+06 | 116 | 168
11 | CD71-binding FN3 domain SEQ ID NO 354 (designed binder) MLPAPKNLVVSRVTEDSARLSWTAPDAAFDSFFIGYLEPQPPGEAIQLWVPGSERSYDLTGLKPGTEYNVTIQGVKGGFPSLPLVATFTT | 5.75e+06 | 5.25e+06 | 155 | 142
12 | CD71-binding FN3 domain SEQ ID NO 351 (designed binder) MLPAPKNLVVSRVTEDSARLSWTAPDAAFDSFFIGYLEPQPPGEAITLAVPGSERSYDLTGLKPGTEYNVTIQGVKGGFPSNPLLAAFTT | 2.67e+06 | 2.87e+06 | 322 | 345
